Assay results published in article PMC11076338, “ACRE, a class of AP2/ERF transcription factors, activates the expression of sweet potato ß-amylase and sporamin genes through the sugar-responsible element CMSRE-1”.

Assays:
Experiment in all cases: EMSA; EMSA: 15 mM HEPES-KOH pH 7.5, 25 mM KCl, 0.25 mM EDTA, 6% glycerol, 2 mM DTT, 20 fmol probe (Methods print 20 fg), 0.2-0.8 ug protein, room temperature 30 min
Conditions in all cases: protein: recombinant; tags: MBP (N-terminal); label: biotin as probe
ORA47/ACRE3 (ERF018) = biological target: T1, ORA47/ACRE3 (ERF018) (Arabidopsis thaliana, UniProt Q9S7L5 1-195)
T1 sequence: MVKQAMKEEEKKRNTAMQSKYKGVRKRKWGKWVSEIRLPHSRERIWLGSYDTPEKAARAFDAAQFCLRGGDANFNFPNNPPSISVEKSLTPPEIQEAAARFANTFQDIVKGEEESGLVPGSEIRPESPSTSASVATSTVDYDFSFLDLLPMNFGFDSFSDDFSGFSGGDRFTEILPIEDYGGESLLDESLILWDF

ACRE2 (ERF017) = biological target: T2, ACRE2 (ERF017) (Arabidopsis thaliana, UniProt Q84QC2 1-185)
T2 sequence: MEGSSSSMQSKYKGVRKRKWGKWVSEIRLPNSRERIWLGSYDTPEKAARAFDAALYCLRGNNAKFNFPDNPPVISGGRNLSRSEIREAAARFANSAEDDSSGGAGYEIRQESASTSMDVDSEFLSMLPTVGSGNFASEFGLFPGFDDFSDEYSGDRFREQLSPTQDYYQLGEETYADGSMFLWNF

ACRE1 = biological target: T3, ACRE1 (Arabidopsis thaliana, UniProt Q9C591 1-216)
T3 sequence: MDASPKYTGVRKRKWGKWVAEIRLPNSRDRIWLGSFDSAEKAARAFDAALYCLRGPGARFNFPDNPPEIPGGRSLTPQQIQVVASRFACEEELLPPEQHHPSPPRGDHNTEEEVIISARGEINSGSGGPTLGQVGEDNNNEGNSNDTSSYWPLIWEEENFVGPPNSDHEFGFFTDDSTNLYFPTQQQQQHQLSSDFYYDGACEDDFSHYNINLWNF

Measured: binding result

B1: SPO (dsDNA)
DNA 1: CTAGTACACTTGGACGGCCACAT
DNA 2: ATGTGGCCGTCCAAGTGTACTAG
binds: all assays above

B2: DRE (dsDNA)
DNA 1: TCGAGTAAATCATGTCGGTTGAAAG
DNA 2: CTTTCAACCGACATGATTTACTCGA
binds: all assays above

B3: BA (dsDNA)
DNA 1: CTAGTCTTAATGGACGGTATTGT
DNA 2: ACAATACCGTCCATTAAGACTAG
binds: all assays above
